Data set [1] concerns the target T1, Oct2β (in vitro translated) (Ictalurus punctatus (channel catfish), UniProt O13007 1-480).
T1 sequence: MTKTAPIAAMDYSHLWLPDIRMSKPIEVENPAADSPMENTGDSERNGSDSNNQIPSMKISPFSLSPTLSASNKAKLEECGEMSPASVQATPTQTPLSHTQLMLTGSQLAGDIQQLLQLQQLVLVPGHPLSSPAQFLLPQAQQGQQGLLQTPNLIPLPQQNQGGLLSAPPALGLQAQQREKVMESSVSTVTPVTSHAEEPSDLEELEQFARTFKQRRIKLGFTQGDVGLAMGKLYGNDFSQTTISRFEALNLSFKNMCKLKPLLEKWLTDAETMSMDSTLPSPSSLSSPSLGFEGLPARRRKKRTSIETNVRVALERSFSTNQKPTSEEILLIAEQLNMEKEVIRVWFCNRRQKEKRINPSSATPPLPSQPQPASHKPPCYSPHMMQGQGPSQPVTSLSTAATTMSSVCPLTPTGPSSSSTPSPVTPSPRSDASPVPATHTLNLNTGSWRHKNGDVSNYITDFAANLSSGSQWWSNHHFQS
In words: EMSA; 1x Promega binding buffer (from 5x, composition not given), 30 min preincubation at room temperature then 30 min with probe; 5% native PAGE at 4°C; 100x competitor; pH and salt not given; extract EMSA as in Ross et al. As to conditions: protein: ivt; label: 32P-dATP Klenow fill-in; 5' overhang 4 nt on both strands as annealed; labeled by Klenow fill-in.

Data set [2] concerns the target T2, Oct1 (in vitro translated) (Ictalurus punctatus (channel catfish; …, UniProt O57602 1-623).
T2 sequence: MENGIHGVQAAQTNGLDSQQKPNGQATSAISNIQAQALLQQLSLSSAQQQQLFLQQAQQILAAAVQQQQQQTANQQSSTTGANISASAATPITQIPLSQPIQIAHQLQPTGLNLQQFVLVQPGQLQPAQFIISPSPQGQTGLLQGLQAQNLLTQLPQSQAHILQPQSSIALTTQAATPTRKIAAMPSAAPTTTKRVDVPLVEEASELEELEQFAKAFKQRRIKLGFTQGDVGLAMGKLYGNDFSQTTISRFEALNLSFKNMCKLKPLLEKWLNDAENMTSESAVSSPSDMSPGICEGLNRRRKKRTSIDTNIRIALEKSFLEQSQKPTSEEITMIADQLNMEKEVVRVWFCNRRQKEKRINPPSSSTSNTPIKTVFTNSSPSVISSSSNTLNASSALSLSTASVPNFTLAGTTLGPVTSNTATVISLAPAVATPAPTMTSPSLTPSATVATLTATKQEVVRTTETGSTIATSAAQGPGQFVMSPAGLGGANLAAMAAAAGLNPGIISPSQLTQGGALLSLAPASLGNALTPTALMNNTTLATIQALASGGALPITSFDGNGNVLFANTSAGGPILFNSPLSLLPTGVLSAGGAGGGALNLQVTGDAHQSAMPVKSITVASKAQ
In words: EMSA; cold self competitor inhibits; anti-Oct1 abolishes shift; 1x Promega binding buffer (from 5x, composition not given), 30 min preincubation at room temperature then 30 min with probe; 5% native PAGE at 4°C; 100x competitor; pH and salt not given; extract EMSA as in Ross et al. As to conditions: protein: ivt; label: 32P-dATP Klenow fill-in; 5' overhang 4 nt on both strands as annealed; labeled by Klenow fill-in. In general terms: A gel shift assay detects complexes by their altered migration in electrophoresis.

B1: Eμ3' core enhancer first octamer (G-2110/G-2111) (dsDNA)
DNA 1: GCAAAACACTGCATGTAAATAGTCTAAT
DNA 2: CATTATTAGACTATTTACATGCAGTGTT
Turning to B1, the binding result in data set [1] and in data set [2] was “binds” each time.
